Source: patent publication US12269859B2, “Synthetic immune receptors and methods of use thereof” (Angeles Therapeutics, Inc., priority 2016, dated 2025)

Tested on: target antigen-expressing cell line
Test: Jurkat NFAT-GFP assay, coculture with target cell lines expressing the respective target antigen (summary Table 10A)
Type: cell-based, human
Parameters: key: The signs +/−, +, 2+ etc. after the name of the cell lines indicate the relative degree of positivity on the Jurkat-NFAT-GFP assay as measured by the % GFP positive cells; +: relative degree of positivity on the Jurkat-NFAT-GFP assay as measured by the % GFP positive cells; 2+: relative degree of positivity on the Jurkat-NFAT-GFP assay as measured by the % GFP positive cells
Outline: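 Jurkat cells carrying an NFAT-site IL-2 promoter driving GFP were lentivirally transduced with SIRs, puromycin-selected, then cocultured with antigen-expressing target cells at E:T about 1:2 for about 4–18 hours. GFP induction was read by flow cytometry as % GFP-positive cells versus parental Jurkat-NFAT-GFP.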

B1: 072717-G01 (protein)
chain: MALPVTALLLPLALLLHAARPLEGKPIPNPLLGLDSTGSGEDLKNVFPPEVAVFEPSKAEIAHTQKATLVCLATGFYPDHVELSWWVNGKEVHSGVCTDPQPLKEQPALNDSRYCLSSRLRVSATFWQNPRNHFRCQVQFYGLSENDEWTQDRAKPVTQIVSAEAWGRADCGITSASYHQGVLSATILYEILLGKATLYAVLVSALVLMAMVKRKDSRGRAKRSGSGATNFSLLKQAGDVEENPGPTSMALPVTALLLPLALLLHAARPEFAVQLVESGGGLVQAGDSLRLTCTASGRAFSTYFMAWFRQAPGKEREFVAGIAWSGGSTAYADSVKGRFTISRDNAKNTVYLQMNSLKSEDTAVYYCASRGIEVEEFGAWGQGTQVTVSSPGGGGSPQVQLVESGGGLVQAGGSLRLSCAASGGTLSKNTVAWFRQAPGKERGFVASITWDGRTTYYADSVKGRFTISRDNAKNTVYLQMNSLKPEDTAVYVCADLGKWPAGPADYWGQGTQVTVSSEVAALEKEVAALEKEVAALEKEVAALEKTREQKLISEEDGSGIQNPDPAVYQLRDSKSSDKSVCLFTDFDSQTNVSQSKDSDVYITDKCVLDMRSMDFKSNSAVAWSNKSDFACANAFNNSIIPEDTFFPSSDVPCDVKLVEKSFETDTNLNFQNLSVIGFRILLLKVAGFNLLMTLRLWSSRAKRSGSGVKQTLNFDLLKLAGDVESNPGPSRGHMTEYKPTVRLATRDDVPRAVRTLAAAFADYPATRHTVDPDRHIERVTELQELFLTRVGLDIGKVWVADDGAAVAVWTTPESVEAGAVFAEIGPRMAELSGSRLAAQQQMEGLLAPHRPKEPAWFLATVGVSPDHQGKGLGSAVVLPGVEAAERAGVPAFLETSAPRNLPFYERLGFTVTADVEVPEGPRTWCMTRKPGA
NFAT-GFP ASSAY Positive Cell lines: L363 (SIR-expressing Jurkat-NFAT-GFP cells cocultured with L363, relative % GFP positive cells): L363 (+/−), U266
NFAT-GFP ASSAY Positive Cell lines: U266 (SIR-expressing Jurkat-NFAT-GFP cells cocultured with U266, relative % GFP positive cells): (+/−)

B2: 091616-Z01 (protein)
chain: MALPVTALLLPLALLLHAARPDIVMTQSPDSLAVSLGERATINCKSSQSILYSSNQKNYLAWYQQKPGQSPKLLIYWASTRESGVPDRFSGSGSGTDFTLTISSLQAEDVAVYYCHQYISSYTFGQGTKLEIKLEEQKLISEEDLGSGEDLKNVFPPEVAVFEPSKAEIAHTQKATLVCLATGFYPDHVELSWWVNGKEVHSGVCTDPQPLKEQPALNDSRYCLSSRLRVSATFWQNPRNHFRCQVQFYGLSENDEWTQDRAKPVTQIVSAEAWGRADCGITSASYHQGVLSATILYEILLGKATLYAVLVSALVLMAMVKRKDSRGRAKRSGSGATNFSLLKQAGDVEENPGPTSMDWIWRILFLVGAATGAHSFEQVQLVQSGAEVKKPGASVKVSCKASGYTFASQWMHWMRQAPGQGLEWIGWINPGNVNTKYNEKFKGRATLTVDTSTNTAYMELSSLRSEDTAVYYCARSTWYRPLDYWGQGTLVTVSSTREQKLISEEDLGSGIQNPDPAVYQLRDSKSSDKSVCLFTDFDSQTNVSQSKDSDVYITDKCVLDMRSMDFKSNSAVAWSNKSDFACANAFNNSIIPEDTFFPSSDVPCDVKLVEKSFETDTNLNFQNLSVIGFRILLLKVAGFNLLMTLRLWSSRAKRSGSGVKQTLNFDLLKLAGDVESNPGPSRGHMTEYKPTVRLATRDDVPRAVRTLAAAFADYPATRHTVDPDRHIERVTELQELFLTRVGLDIGKVWVADDGAAVAVWTTPESVEAGAVFAEIGPRMAELSGSRLAAQQQMEGLLAPHRPKEPAWFLATVGVSPDHQGKGLGSAVVLPGVEAAERAGVPAFLETSAPRNLPFYERLGFTVTADVEVPEGPRTWCMTRKPGA
modifications: Synthetic Immune Receptor (SIR)
NFAT-GFP ASSAY Positive Cell lines: L428 (SIR-expressing Jurkat-NFAT-GFP cells cocultured with L428, relative % GFP positive cells): L428 (+/−)

B3: 082317-G04 (protein)
chain: MALPVTALLLPLALLLHAARPLEGKPIPNPLLGLDSTGSGEDLKNVFPPEVAVFEPSKAEIAHTQKATLVCLATGFYPDHVELSWWVNGKEVHSGVCTDPQPLKEQPALNDSRYCLSSRLRVSATFWQNPRNHFRCQVQFYGLSENDEWTQDRAKPVTQIVSAEAWGRADCGITSASYHQGVLSATILYEILLGKATLYAVLVSALVLMAMVKRKDSRGRAKRSGSGATNFSLLKQAGDVEENPGPTSMALPVTALLLPLALLLHAARPQIVLTQSPAIMSASPGEKVTITCSASSSVSYMHWFQQKPGTSPKLWIYSTSNLASGVPARFSGSGSGTSYSLTISRMEAEDAATYYCQQRSSYPPTFGGGTKLEIKGGGGSGGGGSGGGGSQVQLQQSGAELMKPGASVKISCKATGYTFSSYWIEWVKQRPGHGLEWIGEILPGSGSTNYNEKFKGKATFTADTSSNTAYMQLSSLTSEDSAVYYCARYDYPWFAYWGQGTLVTVSATREQKLISEEDGSGIQNPDPAVYQLRDSKSSDKSVCLFTDFDSQTNVSQSKDSDVYITDKCVLDMRSMDFKSNSAVAWSNKSDFACANAFNNSIIPEDTFFPSSDVPCDVKLVEKSFETDTNLNFQNLSVIGFRILLLKVAGFNLLMTLRLWSSRAKRSGSGVKQTLNFDLLKLAGDVESNPGPSRGHMTEYKPTVRLATRDDVPRAVRTLAAAFADYPATRHTVDPDRHIERVTELQELFLTRVGLDIGKVWVADDGAAVAVWTTPESVEAGAVFAEIGPRMAELSGSRLAAQQQMEGLLAPHRPKEPAWFLATVGVSPDHQGKGLGSAVVLPGVEAAERAGVPAFLETSAPRNLPFYERLGFTVTADVEVPEGPRTWCMTRKPGA
NFAT-GFP ASSAY Positive Cell lines (coculture with L428 cells): L428 (+/−)

B4: 110116-H02 (protein)
chain: MALPVTALLLPLALLLHAARPLEQKLISEEDLGSGDRPDPAVYQLRDSKSSDKSVCLFTDFDSQTNVSQSKDSDVYITDKCVLDMRSMDFKSNSAVAWSNKSDFACANAFNNSIIPEDTFFPSPESSCDVKLVEKSFETDTNLNFQNLSVIGFRILLLKVAGFNLLMTLRLWSSSSRAKRSGSGVKQTLNFDLLKLAGDVESNPGPTSMALPVTALLLPLALLLHAARPDIQMTQSTSSLSASLGDRVTISCSASQGINNYLNWYQQKPDGTVELLIYYTSTLQSGVPSRFSGSGSGTDYSLTISNLEPEDIGTYYCQQYSKLPRTFGGGTKLEIKGGGGSGGGGSGGGGSQVQLQQSGSELMMPGASVKISCKATGYTFSNYWIEWVKQRPGHGLEWIGEILPGTGRTIYNEKFKGKATFTADISSNTVQMQLSSLTSEDSAVYYCARRDYYGNFYYAMDYWGQGTSVTVSSTRGKPIPNPLLGLDSTGSGEDLKNVFPPEVAVFEPSEAEISHTQKATLVCLATGFYPDHVELSWWVNGKEVHSGVCTDPQPLKEQPALNDSRYCLSSRLRVSATFWQNPRNHFRCQVQFYGLSENDEWTQDRAKPVTQIVSAEAWGRADCGFTSESYQQGVLSATILYEILLGKATLYAVLVSALVLMAMVKRKDSRGRAKRSGSGATNFSLLKQAGDVEENPGPSRGHMTEYKPTVRLATRDDVPRAVRTLAAAFADYPATRHTVDPDRHIERVTELQELFLTRVGLDIGKVWVADDGAAVAVWTTPESVEAGAVFAEIGPRMAELSGSRLAAQQQMEGLLAPHRPKEPAWFLATVGVSPDHQGKGLGSAVVLPGVEAAERAGVPAFLETSAPRNLPFYERLGFTVTADVEVPEGPRTWCMTRKPGA
modifications: Synthetic Immune Receptor (SIR)
NFAT-GFP ASSAY Positive Cell lines (coculture with L363 cells): L363 (+/−), U266
NFAT-GFP ASSAY Positive Cell lines (coculture with U266 cells): (+)
